The target of assay [1] is Cys^6-antag: secretin antagonist (c[E^16, K^20], Y^10, I^17, Cha^22, R^25)sec(5–27) with cysteine in position 6. As to the kind of experiment: cysteine trapping with 125I-labeled probe, SDS-PAGE autoradiography densitometry. The conditions noted are these: SecR cysteine replacement mutants transiently expressed in COS-1 cells; nonreducing conditions; three experiments; read off a plot.

Assay [2] has as its target Cys^5-antag: secretin antagonist (c[E^16, K^20], Y^10, I^17, Cha^22, R^25)sec(5–27) with cysteine in position 5. The assay is described as above. The conditions noted are these: SecR cysteine replacement mutants transiently expressed in COS-1 cells; nonreducing conditions; three experiments; read off a plot.

Turning to “wild-type human secretin receptor, on COS-1 cells (from UniProt P47872) A359C”, the response (% of maximal signal within this loop) is 98 in assay [1] and 88 in assay [2].
For “wild-type human secretin receptor, on COS-1 cells (from UniProt P47872) A365C” the same measures were 37 and 22.
For “wild-type human secretin receptor, on COS-1 cells (from UniProt P47872) D364C” the same measures were 33 and 22.
For “wild-type human secretin receptor, on COS-1 cells (from UniProt P47872) E363C” the same measures were 21 and 22.
“wild-type human secretin receptor, on COS-1 cells (from UniProt P47872) E367C”: the response (% of maximal signal within this loop) in assay [1] stood at 12; in assay [2], 4.
For “wild-type human secretin receptor, on COS-1 cells (from UniProt P47872) E373C” the same measures were 62 and 28.
For “wild-type human secretin receptor, on COS-1 cells (from UniProt P47872) F358C”, in that order: 93 and 75.
For “wild-type human secretin receptor, on COS-1 cells (from UniProt P47872) F360C”, in that order: 70 and 63.
On to “wild-type human secretin receptor, on COS-1 cells (from UniProt P47872) F371C”, for which the response (% of maximal signal within this loop) in assay [1] was found to be 40; in assay [2], 22.
On to “wild-type human secretin receptor, on COS-1 cells (from UniProt P47872) F372C”, for which the response (% of maximal signal within this loop) in assay [1] worked out at 46; in assay [2] it was 28.
Consider “wild-type human secretin receptor, on COS-1 cells (from UniProt P47872) I368C”, for which the results for the response (% of maximal signal within this loop) in assay [1] and in assay [2] were 20 and 12, respectively.
For “wild-type human secretin receptor, on COS-1 cells (from UniProt P47872) L370C”, in that order: 43 and 19.
Regarding “wild-type human secretin receptor, on COS-1 cells (from UniProt P47872) L374C”, the response (% of maximal signal within this loop) turned out to be 88 in assay [1] and 35 in assay [2].
For the substance “wild-type human secretin receptor, on COS-1 cells (from UniProt P47872) M366C”, the response (% of maximal signal within this loop) stood at 35 in assay [1] and 18 in assay [2].
“wild-type human secretin receptor, on COS-1 cells (from UniProt P47872) P362C”: the response (% of maximal signal within this loop) in assay [1] amounted to 40; in assay [2], 30.
Turning to “wild-type human secretin receptor, on COS-1 cells (from UniProt P47872) Q369C”, the response (% of maximal signal within this loop) in assay [1] worked out at 41; in assay [2], 14.
For “wild-type human secretin receptor, on COS-1 cells (from UniProt P47872) S361C”, in that order: 80 and 87.
